Experimental data: patent publication US20150203577A1 (Chugai, published 2015)

T1: mouse FcγRII extracellular domain, C-terminally His-tagged (mouse, UniProt P08101 30-210)
T1 construct: the whole entry is named; also called mFcγRII; mFcgRII
T1 sequence: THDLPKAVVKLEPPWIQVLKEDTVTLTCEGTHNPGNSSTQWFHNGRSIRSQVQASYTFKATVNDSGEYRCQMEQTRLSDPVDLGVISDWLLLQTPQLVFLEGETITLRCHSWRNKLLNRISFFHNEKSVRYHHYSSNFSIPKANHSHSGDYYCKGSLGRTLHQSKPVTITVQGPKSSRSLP

T2: mouse FcγRIII extracellular domain, C-terminally His-tagged (mouse, UniProt P08508 31-215)
T2 construct: the whole entry is named; also called mFcγRIII; mFcgRIII
T2 chain: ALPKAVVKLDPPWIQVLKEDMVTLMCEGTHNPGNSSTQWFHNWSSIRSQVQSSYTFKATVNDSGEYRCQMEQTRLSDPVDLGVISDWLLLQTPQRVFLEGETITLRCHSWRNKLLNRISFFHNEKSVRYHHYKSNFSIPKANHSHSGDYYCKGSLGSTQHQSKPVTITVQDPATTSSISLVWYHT


How the values were obtained:
[1] = molecular target: T1, mouse FcγRII extracellular domain, …; assay: SPR Biacore T200, KD ratio
Method: (§1) Each altered antibody was analyzed for its interaction with each Fcγ receptor prepared above using Biacore T100 (GE Healthcare Japan Corp.), Biacore T200 (GE Healthcare Japan Corp.), Biacore A100, or Biacore 4000. The running buffer used was HBS-EP+ (GE Healthcare Japan Corp.). The assay temperature was set to 25° C. The sensor chips used were chips prepared by immobilizing Protein L (ACTIGEN or BioVision) onto Series S Sensor Chip CM5 (GE Healthcare Japan Corp.) or Series S Sensor Chip CM4 (GE Healthcare Japan Corp.) by the amine coupling method.
(§2) In order to calculate the KD value of each altered antibody for FcγR, kinetic analysis was conducted according to the following method: first, the antibody of interest was captured onto any of these chips and allowed to interact with mFcγR diluted with a running buffer. For the obtained sensorgram, the assay results were globally fit into the 1:1 Langmuir binding model using Biacore Evaluation Software to calculate an association rate constant ka (L/mol/s) and a dissociation rate constant kd (1/s). From these values, the dissociation constant KD (mol/L) was calculated.

[2] = molecular target: T2, mouse FcγRIII extracellular domain, …; assay: SPR Biacore T200, KD ratio
Method: as §1, §2

| relative mFcγRII-binding activity (mIgG1 = 1) [1] [fold] | relative mFcγRIII-binding activity (mIgG1 = 1) [2] [fold] | Binder |
| --- | --- | --- |
| 4.55 | 0.3 | H237-MB644/MRAL-k0 (antibody, mouse IgG1, kappa, copies: 2 + 2) heavy: QVQLQESGPGLVKPSETLSLTCAVSGHSISHDHAWSWVRQPPGEGLEWIGFISYSGITNYNPSLQGRVTISRDNSKNTLYLQMNSLRAEDTAVYYCARSLARTTAMDYWGEGTLVTVSSAKTTPPSVYPLAPGSAAQTNSMVTLGCLVKGYFPEPVTVTWNSGSLSSGVHTFPAVLQSDLYTLSSSVTVPSSTWPSETVTCNVAHPASSTKVDKKIVPRDCGCKPCICETYEVEYVFIFPPKPKDVLTITLTPKVTCVVVDISKDDPEVQFSWFVDDVEVHTAQTQPREEQFNSTFRSVSELPIMHQDWLNGKEFKCRVNSAAFPAPIEKTISKTKGRPKAPQVYTIPPPKEQMAKDKVSLTCMITDFFPEDITVEWQWNGQPAENYKNTQPIMDTDGSYFVYSKLNVQKSNWEAGNTFTCSVLHEGLHNHHTEKSLSHSPGK light: not shown |
| 10.8 | 0.64 | H237-MB648/MRAL-k0 (antibody, mouse IgG1, kappa, copies: 2 + 2) heavy: QVQLQESGPGLVKPSETLSLTCAVSGHSISHDHAWSWVRQPPGEGLEWIGFISYSGITNYNPSLQGRVTISRDNSKNTLYLQMNSLRAEDTAVYYCARSLARTTAMDYWGEGTLVTVSSAKTTPPSVYPLAPGSAAQTNSMVTLGCLVKGYFPEPVTVTWNSGSLSSGVHTFPAVLQSDLYTLSSSVTVPSSTWPSETVTCNVAHPASSTKVDKKIVPRDCGCKPCICEPNEVEYVFIFPPKPKDVLTITLTPKVTCVVVDISKDDPEVQFSWFVDDVEVHTAQTQPREEQFNSTFRSVSELPIMHQDWLNGKEFKCRVNSAAFPAPIEKTISKTKGRPKAPQVYTIPPPKEQMAKDKVSLTCMITDFFPEDITVEWQWNGQPAENYKNTQPIMDTDGSYFVYSKLNVQKSNWEAGNTFTCSVLHEGLHNHHTEKSLSHSPGK light: not shown |
| 4.38 | 0.15 | H237-MB646/MRAL-k0 (antibody, mouse IgG1, kappa, copies: 2 + 2) heavy: QVQLQESGPGLVKPSETLSLTCAVSGHSISHDHAWSWVRQPPGEGLEWIGFISYSGITNYNPSLQGRVTISRDNSKNTLYLQMNSLRAEDTAVYYCARSLARTTAMDYWGEGTLVTVSSAKTTPPSVYPLAPGSAAQTNSMVTLGCLVKGYFPEPVTVTWNSGSLSSGVHTFPAVLQSDLYTLSSSVTVPSSTWPSETVTCNVAHPASSTKVDKKIVPRDCGCKPCICEPAEVEYVFIFPPKPKDVLTITLTPKVTCVVVDISKDDPEVQFSWFVDDVEVHTAQTQPREEQFNSTFRSVSELPIMHQDWLNGKEFKCRVNSAAFPAPIEKTISKTKGRPKAPQVYTIPPPKEQMAKDKVSLTCMITDFFPEDITVEWQWNGQPAENYKNTQPIMDTDGSYFVYSKLNVQKSNWEAGNTFTCSVLHEGLHNHHTEKSLSHSPGK light: not shown |
| 0.3 | 0.04 | H237-MB651/MRAL-k0 (antibody, mouse IgG1, kappa, copies: 2 + 2) heavy: QVQLQESGPGLVKPSETLSLTCAVSGHSISHDHAWSWVRQPPGEGLEWIGFISYSGITNYNPSLQGRVTISRDNSKNTLYLQMNSLRAEDTAVYYCARSLARTTAMDYWGEGTLVTVSSAKTTPPSVYPLAPGSAAQTNSMVTLGCLVKGYFPEPVTVTWNSGSLSSGVHTFPAVLQSDLYTLSSSVTVPSSTWPSETVTCNVAHPASSTKVDKKIVPRDCGCKPCICEDYEVEFVFIFPPKPKDVLTITLTPKVTCVVVDISKDDPEVQFSWFVDDVEVHTAQTQPREEQFNSTFRSVSELPIMHQDWLNGKEFKCRVNSAAFPAPIEKTISKTKGRPKAPQVYTIPPPKEQMAKDKVSLTCMITDFFPEDITVEWQWNGQPAENYKNTQPIMDTDGSYFVYSKLNVQKSNWEAGNTFTCSVLHEGLHNHHTEKSLSHSPGK light: not shown |
| 0.41 | 0.1 | H237-MB653/MRAL-k0 (antibody, mouse IgG1, kappa, copies: 2 + 2) heavy: QVQLQESGPGLVKPSETLSLTCAVSGHSISHDHAWSWVRQPPGEGLEWIGFISYSGITNYNPSLQGRVTISRDNSKNTLYLQMNSLRAEDTAVYYCARSLARTTAMDYWGEGTLVTVSSAKTTPPSVYPLAPGSAAQTNSMVTLGCLVKGYFPEPVTVTWNSGSLSSGVHTFPAVLQSDLYTLSSSVTVPSSTWPSETVTCNVAHPASSTKVDKKIVPRDCGCKPCICETYEVEFVFIFPPKPKDVLTITLTPKVTCVVVDISKDDPEVQFSWFVDDVEVHTAQTQPREEQFNSTFRSVSELPIMHQDWLNGKEFKCRVNSAAFPAPIEKTISKTKGRPKAPQVYTIPPPKEQMAKDKVSLTCMITDFFPEDITVEWQWNGQPAENYKNTQPIMDTDGSYFVYSKLNVQKSNWEAGNTFTCSVLHEGLHNHHTEKSLSHSPGK light: not shown |
| 3.89 | 0.51 | H237-MB649/MRAL-k0 (antibody, mouse IgG1, kappa, copies: 2 + 2) heavy: QVQLQESGPGLVKPSETLSLTCAVSGHSISHDHAWSWVRQPPGEGLEWIGFISYSGITNYNPSLQGRVTISRDNSKNTLYLQMNSLRAEDTAVYYCARSLARTTAMDYWGEGTLVTVSSAKTTPPSVYPLAPGSAAQTNSMVTLGCLVKGYFPEPVTVTWNSGSLSSGVHTFPAVLQSDLYTLSSSVTVPSSTWPSETVTCNVAHPASSTKVDKKIVPRDCGCKPCICQPNEVEYVFIFPPKPKDVLTITLTPKVTCVVVDISKDDPEVQFSWFVDDVEVHTAQTQPREEQFNSTFRSVSELPIMHQDWLNGKEFKCRVNSAAFPAPIEKTISKTKGRPKAPQVYTIPPPKEQMAKDKVSLTCMITDFFPEDITVEWQWNGQPAENYKNTQPIMDTDGSYFVYSKLNVQKSNWEAGNTFTCSVLHEGLHNHHTEKSLSHSPGK light: not shown |
| 0.28 | 0.06 | H237-MB652/MRAL-k0 (antibody, mouse IgG1, kappa, copies: 2 + 2) heavy: QVQLQESGPGLVKPSETLSLTCAVSGHSISHDHAWSWVRQPPGEGLEWIGFISYSGITNYNPSLQGRVTISRDNSKNTLYLQMNSLRAEDTAVYYCARSLARTTAMDYWGEGTLVTVSSAKTTPPSVYPLAPGSAAQTNSMVTLGCLVKGYFPEPVTVTWNSGSLSSGVHTFPAVLQSDLYTLSSSVTVPSSTWPSETVTCNVAHPASSTKVDKKIVPRDCGCKPCICENYEVEFVFIFPPKPKDVLTITLTPKVTCVVVDISKDDPEVQFSWFVDDVEVHTAQTQPREEQFNSTFRSVSELPIMHQDWLNGKEFKCRVNSAAFPAPIEKTISKTKGRPKAPQVYTIPPPKEQMAKDKVSLTCMITDFFPEDITVEWQWNGQPAENYKNTQPIMDTDGSYFVYSKLNVQKSNWEAGNTFTCSVLHEGLHNHHTEKSLSHSPGK light: not shown |
| 0.24 | 0.05 | H237-MB650/MRAL-k0 (antibody, mouse IgG1, kappa, copies: 2 + 2) heavy: QVQLQESGPGLVKPSETLSLTCAVSGHSISHDHAWSWVRQPPGEGLEWIGFISYSGITNYNPSLQGRVTISRDNSKNTLYLQMNSLRAEDTAVYYCARSLARTTAMDYWGEGTLVTVSSAKTTPPSVYPLAPGSAAQTNSMVTLGCLVKGYFPEPVTVTWNSGSLSSGVHTFPAVLQSDLYTLSSSVTVPSSTWPSETVTCNVAHPASSTKVDKKIVPRDCGCKPCICEAYEVEFVFIFPPKPKDVLTITLTPKVTCVVVDISKDDPEVQFSWFVDDVEVHTAQTQPREEQFNSTFRSVSELPIMHQDWLNGKEFKCRVNSAAFPAPIEKTISKTKGRPKAPQVYTIPPPKEQMAKDKVSLTCMITDFFPEDITVEWQWNGQPAENYKNTQPIMDTDGSYFVYSKLNVQKSNWEAGNTFTCSVLHEGLHNHHTEKSLSHSPGK light: not shown |
| 1.17 | 0.2 | H237-MB645/MRAL-k0 (antibody, mouse IgG1, kappa, copies: 2 + 2) heavy: QVQLQESGPGLVKPSETLSLTCAVSGHSISHDHAWSWVRQPPGEGLEWIGFISYSGITNYNPSLQGRVTISRDNSKNTLYLQMNSLRAEDTAVYYCARSLARTTAMDYWGEGTLVTVSSAKTTPPSVYPLAPGSAAQTNSMVTLGCLVKGYFPEPVTVTWNSGSLSSGVHTFPAVLQSDLYTLSSSVTVPSSTWPSETVTCNVAHPASSTKVDKKIVPRDCGCKPCICEVYEVEYVFIFPPKPKDVLTITLTPKVTCVVVDISKDDPEVQFSWFVDDVEVHTAQTQPREEQFNSTFRSVSELPIMHQDWLNGKEFKCRVNSAAFPAPIEKTISKTKGRPKAPQVYTIPPPKEQMAKDKVSLTCMITDFFPEDITVEWQWNGQPAENYKNTQPIMDTDGSYFVYSKLNVQKSNWEAGNTFTCSVLHEGLHNHHTEKSLSHSPGK light: not shown |
| 1.05 | 0.1 | H237-MB647/MRAL-k0 (antibody, mouse IgG1, kappa, copies: 2 + 2) heavy: QVQLQESGPGLVKPSETLSLTCAVSGHSISHDHAWSWVRQPPGEGLEWIGFISYSGITNYNPSLQGRVTISRDNSKNTLYLQMNSLRAEDTAVYYCARSLARTTAMDYWGEGTLVTVSSAKTTPPSVYPLAPGSAAQTNSMVTLGCLVKGYFPEPVTVTWNSGSLSSGVHTFPAVLQSDLYTLSSSVTVPSSTWPSETVTCNVAHPASSTKVDKKIVPRDCGCKPCICIPAEVEYVFIFPPKPKDVLTITLTPKVTCVVVDISKDDPEVQFSWFVDDVEVHTAQTQPREEQFNSTFRSVSELPIMHQDWLNGKEFKCRVNSAAFPAPIEKTISKTKGRPKAPQVYTIPPPKEQMAKDKVSLTCMITDFFPEDITVEWQWNGQPAENYKNTQPIMDTDGSYFVYSKLNVQKSNWEAGNTFTCSVLHEGLHNHHTEKSLSHSPGK light: not shown |
